According to paper PMC2775414:

Molecular target: heavy meromyosin-like fragment of myosin Va (MyoV-HMM), with its bound calmodulin (mouse | not stated) (UniProt Q99104)
Sequence (Q99104 1-1090): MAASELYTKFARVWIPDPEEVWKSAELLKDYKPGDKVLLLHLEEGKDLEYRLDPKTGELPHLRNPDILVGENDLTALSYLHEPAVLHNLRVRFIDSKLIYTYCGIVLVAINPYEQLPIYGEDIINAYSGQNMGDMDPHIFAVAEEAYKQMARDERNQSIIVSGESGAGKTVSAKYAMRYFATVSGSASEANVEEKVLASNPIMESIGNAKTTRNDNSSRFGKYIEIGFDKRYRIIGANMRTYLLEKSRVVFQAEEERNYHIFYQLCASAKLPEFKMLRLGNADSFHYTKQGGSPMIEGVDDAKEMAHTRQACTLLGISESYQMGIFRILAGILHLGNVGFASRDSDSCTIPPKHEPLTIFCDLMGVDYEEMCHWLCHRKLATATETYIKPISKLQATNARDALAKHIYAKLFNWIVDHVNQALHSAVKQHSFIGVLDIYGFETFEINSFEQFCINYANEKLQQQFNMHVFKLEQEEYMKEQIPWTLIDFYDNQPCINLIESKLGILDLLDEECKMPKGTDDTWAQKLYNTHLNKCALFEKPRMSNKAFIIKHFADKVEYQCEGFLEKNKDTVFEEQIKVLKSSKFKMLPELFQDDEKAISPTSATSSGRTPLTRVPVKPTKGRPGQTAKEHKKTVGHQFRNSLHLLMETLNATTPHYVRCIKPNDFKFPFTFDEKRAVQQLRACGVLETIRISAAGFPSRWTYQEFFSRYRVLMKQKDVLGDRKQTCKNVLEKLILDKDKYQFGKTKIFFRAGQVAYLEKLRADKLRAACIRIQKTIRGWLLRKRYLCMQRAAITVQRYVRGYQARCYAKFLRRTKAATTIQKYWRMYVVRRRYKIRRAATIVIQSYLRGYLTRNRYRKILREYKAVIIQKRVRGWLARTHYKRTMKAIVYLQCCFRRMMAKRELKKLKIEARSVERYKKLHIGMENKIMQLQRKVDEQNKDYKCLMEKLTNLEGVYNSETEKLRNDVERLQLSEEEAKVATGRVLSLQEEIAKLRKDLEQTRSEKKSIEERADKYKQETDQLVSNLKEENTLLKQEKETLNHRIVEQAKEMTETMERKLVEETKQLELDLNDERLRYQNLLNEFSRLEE

labelled calmodulins exchanged per MyoV-HMM: 3 per MyoV-HMM
Substance: Alexa-Fluor-568-labelled calmodulin (from UniProt P62157 1-149) (natural protein)
